{"source": "the supplement of paper PMC9112550", "about": "“Optimization of the antimicrobial peptide Bac7 by deep mutational scanning” (BMC Biology, 2022);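 also: peptides expressed intracellularly from a pBAD plasmid library in pooled LB shake-flask culture, induced with 0.3% L-arabinose, DNA abundance read by NGS, three biological replicates, DESeq2 with apeglm shrinkage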"}
{"tested_on": "Escherichia coli TOP10", "assay": "shrunken log2 fold change of peptide-encoding DNA abundance (4.5 h post-induction vs induction); higher = less antimicrobial activity (less host growth inhibition)", "settings": "time post-induction: 4.5 h; library: site-saturation at positions 5, 18, 19, 20"}
{"sequence": "RRIRHRPPRLPRPRPRPAQIPRP", "shrunken log2 fold change": 0.276}
{"sequence": "RRIRTRPPRLPRPRPRPDGQPRP", "shrunken log2 fold change": 0.0697}
{"sequence": "RRIRGRPPRLPRPRPRPKIPPRP", "shrunken log2 fold change": 0.0163}
{"sequence": "RRIRIRPPRLPRPRPRPRLMPRP", "shrunken log2 fold change": -0.0272}
{"sequence": "RRIRRRPPRLPRPRPRPRWHPRP", "shrunken log2 fold change": 0.353}
{"sequence": "RRIRRRPPRLPRPRPRPWCEPRP", "shrunken log2 fold change": -0.0981}
{"sequence": "RRIRPRPPRLPRPRPRPWIRPRP", "shrunken log2 fold change": -0.175}
{"sequence": "RRIRPRPPRLPRPRPRPKLTPRP", "shrunken log2 fold change": 0.421}
{"sequence": "RRIRGRPPRLPRPRPRPCNNPRP", "shrunken log2 fold change": 0.0304}
{"sequence": "RRIRVRPPRLPRPRPRPALLPRP", "shrunken log2 fold change": -0.211}
{"sequence": "RRIRYRPPRLPRPRPRPEHIPRP", "shrunken log2 fold change": -0.0114}
{"sequence": "RRIRCRPPRLPRPRPRPMMFPRP", "shrunken log2 fold change": 0.312}
{"sequence": "RRIRLRPPRLPRPRPRPYLDPRP", "shrunken log2 fold change": 0.0027}
{"sequence": "RRIRKRPPRLPRPRPRPMDRPRP", "shrunken log2 fold change": 0.0586}
{"sequence": "RRIRHRPPRLPRPRPRPNKHPRP", "shrunken log2 fold change": -0.627}
{"sequence": "RRIRIRPPRLPRPRPRPTNPPRP", "shrunken log2 fold change": -0.454}
{"sequence": "RRIRCRPPRLPRPRPRPDTEPRP", "shrunken log2 fold change": -0.0455}
{"sequence": "RRIRYRPPRLPRPRPRPDVIPRP", "shrunken log2 fold change": -0.0708}
{"sequence": "RRIRRRPPRLPRPRPRPQRIPRP", "shrunken log2 fold change": -0.00231}
{"sequence": "RRIRDRPPRLPRPRPRPMYSPRP", "shrunken log2 fold change": 0.0101}
{"sequence": "RRIRVRPPRLPRPRPRPHQMPRP", "shrunken log2 fold change": -0.0715}
{"sequence": "RRIRQRPPRLPRPRPRPNSKPRP", "shrunken log2 fold change": -0.429}
{"sequence": "RRIRSRPPRLPRPRPRPGERPRP", "shrunken log2 fold change": 0.637}
{"sequence": "RRIRRRPPRLPRPRPRPRMLPRP", "shrunken log2 fold change": 0.486}
{"sequence": "RRIRGRPPRLPRPRPRPAKYPRP", "shrunken log2 fold change": 0.155}
{"sequence": "RRIRQRPPRLPRPRPRPFPKPRP", "shrunken log2 fold change": 0.0141}
{"sequence": "RRIRWRPPRLPRPRPRPMTCPRP", "shrunken log2 fold change": -0.34}
{"sequence": "RRIRHRPPRLPRPRPRPRPIPRP", "shrunken log2 fold change": 0.117}
{"sequence": "RRIRLRPPRLPRPRPRPFYVPRP", "shrunken log2 fold change": -0.5}
{"sequence": "RRIRLRPPRLPRPRPRPVPTPRP", "shrunken log2 fold change": 0.0616}
{"sequence": "RRIRPRPPRLPRPRPRPPTPPRP", "shrunken log2 fold change": 0.417}
{"sequence": "RRIRDRPPRLPRPRPRPHKSPRP", "shrunken log2 fold change": -0.17}
{"sequence": "RRIRVRPPRLPRPRPRPKHKPRP", "shrunken log2 fold change": -0.114}
{"sequence": "RRIRSRPPRLPRPRPRPTPYPRP", "shrunken log2 fold change": -0.26}
{"sequence": "RRIRWRPPRLPRPRPRPAKLPRP", "shrunken log2 fold change": 0.0566}
{"sequence": "RRIRCRPPRLPRPRPRPCRGPRP", "shrunken log2 fold change": -0.243}
{"sequence": "RRIRLRPPRLPRPRPRPYVEPRP", "shrunken log2 fold change": -0.322}
{"sequence": "RRIRWRPPRLPRPRPRPHRYPRP", "shrunken log2 fold change": -0.15}
{"sequence": "RRIRDRPPRLPRPRPRPFSNPRP", "shrunken log2 fold change": -0.0771}
{"sequence": "RRIRDRPPRLPRPRPRPVHMPRP", "shrunken log2 fold change": 0.111}
{"sequence": "RRIRFRPPRLPRPRPRPNHDPRP", "shrunken log2 fold change": -0.332}
{"sequence": "RRIRNRPPRLPRPRPRPLKRPRP", "shrunken log2 fold change": -0.0368}
{"sequence": "RRIRTRPPRLPRPRPRPPWTPRP", "shrunken log2 fold change": 0.167}
{"sequence": "RRIRDRPPRLPRPRPRPLWRPRP", "shrunken log2 fold change": 0.152}
{"sequence": "RRIRPRPPRLPRPRPRPMWKPRP", "shrunken log2 fold change": -0.146}
{"sequence": "RRIRPRPPRLPRPRPRPFYKPRP", "shrunken log2 fold change": -0.25}
{"sequence": "RRIRQRPPRLPRPRPRPPRIPRP", "shrunken log2 fold change": 0.0686}
{"sequence": "RRIRQRPPRLPRPRPRPTRQPRP", "shrunken log2 fold change": 0.798}
{"sequence": "RRIRFRPPRLPRPRPRPAGDPRP", "shrunken log2 fold change": 0.378}
{"sequence": "RRIRHRPPRLPRPRPRPLEQPRP", "shrunken log2 fold change": -0.0138}
{"sequence": "RRIRQRPPRLPRPRPRPFNNPRP", "shrunken log2 fold change": -0.476}
{"sequence": "RRIRSRPPRLPRPRPRPSLLPRP", "shrunken log2 fold change": -0.146}
{"sequence": "RRIRHRPPRLPRPRPRPNPQPRP", "shrunken log2 fold change": -0.00216}
{"sequence": "RRIRWRPPRLPRPRPRPCSMPRP", "shrunken log2 fold change": -0.565}
{"sequence": "RRIRKRPPRLPRPRPRPIAAPRP", "shrunken log2 fold change": 0.317}
{"sequence": "RRIRARPPRLPRPRPRPILEPRP", "shrunken log2 fold change": -0.0126}
{"sequence": "RRIRTRPPRLPRPRPRPDNGPRP", "shrunken log2 fold change": -0.225}
{"sequence": "RRIRARPPRLPRPRPRPMTMPRP", "shrunken log2 fold change": 0.245}
{"sequence": "RRIRVRPPRLPRPRPRPQPNPRP", "shrunken log2 fold change": -0.125}
{"sequence": "RRIRNRPPRLPRPRPRPTPAPRP", "shrunken log2 fold change": 0.713}
{"sequence": "RRIRIRPPRLPRPRPRPHYHPRP", "shrunken log2 fold change": -1.47}
{"sequence": "RRIRIRPPRLPRPRPRPMLWPRP", "shrunken log2 fold change": 0.0197}
{"sequence": "RRIRMRPPRLPRPRPRPMPCPRP", "shrunken log2 fold change": -0.00548}
{"sequence": "RRIRYRPPRLPRPRPRPQREPRP", "shrunken log2 fold change": -0.00996}
{"sequence": "RRIRDRPPRLPRPRPRPQILPRP", "shrunken log2 fold change": 0.132}
{"sequence": "RRIRRRPPRLPRPRPRPMHIPRP", "shrunken log2 fold change": 0.238}
{"sequence": "RRIRKRPPRLPRPRPRPPANPRP", "shrunken log2 fold change": 0.48}
{"sequence": "RRIRHRPPRLPRPRPRPKYVPRP", "shrunken log2 fold change": -0.0624}
{"sequence": "RRIRIRPPRLPRPRPRPRWQPRP", "shrunken log2 fold change": 0.128}
{"sequence": "RRIRPRPPRLPRPRPRPACHPRP", "shrunken log2 fold change": 0.111}
{"sequence": "RRIRYRPPRLPRPRPRPTLLPRP", "shrunken log2 fold change": -0.703}
{"sequence": "RRIRSRPPRLPRPRPRPYYIPRP", "shrunken log2 fold change": -0.461}
{"sequence": "RRIRRRPPRLPRPRPRPHHIPRP", "shrunken log2 fold change": -0.637}
{"sequence": "RRIRFRPPRLPRPRPRPAELPRP", "shrunken log2 fold change": 0.281}
{"sequence": "RRIRARPPRLPRPRPRPHAWPRP", "shrunken log2 fold change": 0.375}
{"sequence": "RRIRYRPPRLPRPRPRPQTQPRP", "shrunken log2 fold change": -0.275}
{"sequence": "RRIRYRPPRLPRPRPRPTQPPRP", "shrunken log2 fold change": 0.409}
{"sequence": "RRIRKRPPRLPRPRPRPDMHPRP", "shrunken log2 fold change": 0.051}
{"sequence": "RRIRTRPPRLPRPRPRPVGWPRP", "shrunken log2 fold change": 0.753}
{"sequence": "RRIRIRPPRLPRPRPRPQRWPRP", "shrunken log2 fold change": 0.304}
{"sequence": "RRIRFRPPRLPRPRPRPCREPRP", "shrunken log2 fold change": -0.0892}
{"sequence": "RRIRCRPPRLPRPRPRPGDEPRP", "shrunken log2 fold change": 0.105}
{"sequence": "RRIRGRPPRLPRPRPRPVNWPRP", "shrunken log2 fold change": 0.302}
{"sequence": "RRIRFRPPRLPRPRPRPDYFPRP", "shrunken log2 fold change": -0.167}
{"sequence": "RRIRSRPPRLPRPRPRPHEQPRP", "shrunken log2 fold change": 0.128}
{"sequence": "RRIRPRPPRLPRPRPRPISWPRP", "shrunken log2 fold change": -0.00365}
{"sequence": "RRIRKRPPRLPRPRPRPVPAPRP", "shrunken log2 fold change": 0.648}
{"sequence": "RRIRGRPPRLPRPRPRPKTFPRP", "shrunken log2 fold change": 0.292}
{"sequence": "RRIRKRPPRLPRPRPRPCLLPRP", "shrunken log2 fold change": -0.037}
{"sequence": "RRIRFRPPRLPRPRPRPTNTPRP", "shrunken log2 fold change": -0.414}
{"sequence": "RRIRWRPPRLPRPRPRPGHEPRP", "shrunken log2 fold change": 0.0994}
{"sequence": "RRIRRRPPRLPRPRPRPKVFPRP", "shrunken log2 fold change": -0.00912}
{"sequence": "RRIRWRPPRLPRPRPRPKVQPRP", "shrunken log2 fold change": 0.00116}
{"sequence": "RRIRLRPPRLPRPRPRPESPPRP", "shrunken log2 fold change": 0.124}
{"sequence": "RRIRGRPPRLPRPRPRPSQWPRP", "shrunken log2 fold change": 0.101}
{"sequence": "RRIRFRPPRLPRPRPRPAYTPRP", "shrunken log2 fold change": -0.876}
{"sequence": "RRIRCRPPRLPRPRPRPTMYPRP", "shrunken log2 fold change": -0.541}
{"sequence": "RRIRHRPPRLPRPRPRPSQWPRP", "shrunken log2 fold change": -0.451}
{"sequence": "RRIRLRPPRLPRPRPRPTFEPRP", "shrunken log2 fold change": -0.336}
{"sequence": "RRIRPRPPRLPRPRPRPRAFPRP", "shrunken log2 fold change": 0.32}
{"sequence": "RRIRIRPPRLPRPRPRPHIFPRP", "shrunken log2 fold change": -0.311}
{"sequence": "RRIRQRPPRLPRPRPRPKKFPRP", "shrunken log2 fold change": -0.097}
{"sequence": "RRIRPRPPRLPRPRPRPCPCPRP", "shrunken log2 fold change": -0.481}
{"sequence": "RRIRFRPPRLPRPRPRPPTVPRP", "shrunken log2 fold change": 0.499}
{"sequence": "RRIRDRPPRLPRPRPRPGPNPRP", "shrunken log2 fold change": 0.0518}
{"sequence": "RRIRTRPPRLPRPRPRPGNDPRP", "shrunken log2 fold change": -0.219}
{"sequence": "RRIRERPPRLPRPRPRPRWEPRP", "shrunken log2 fold change": 0.0891}
{"sequence": "RRIRPRPPRLPRPRPRPRSKPRP", "shrunken log2 fold change": -0.149}
{"sequence": "RRIRARPPRLPRPRPRPRSHPRP", "shrunken log2 fold change": 0.223}
{"sequence": "RRIRPRPPRLPRPRPRPQFPPRP", "shrunken log2 fold change": 0.0341}
{"sequence": "RRIRYRPPRLPRPRPRPHEYPRP", "shrunken log2 fold change": -0.354}
{"sequence": "RRIRFRPPRLPRPRPRPVHHPRP", "shrunken log2 fold change": -0.00203}
{"sequence": "RRIRYRPPRLPRPRPRPWNFPRP", "shrunken log2 fold change": -0.00304}
{"sequence": "RRIRCRPPRLPRPRPRPNNHPRP", "shrunken log2 fold change": -0.731}
{"sequence": "RRIRMRPPRLPRPRPRPQCAPRP", "shrunken log2 fold change": 0.645}
{"sequence": "RRIRPRPPRLPRPRPRPSWHPRP", "shrunken log2 fold change": 0.182}
{"sequence": "RRIRMRPPRLPRPRPRPMHRPRP", "shrunken log2 fold change": -0.156}
{"sequence": "RRIRCRPPRLPRPRPRPHFWPRP", "shrunken log2 fold change": 0.125}
{"sequence": "RRIRWRPPRLPRPRPRPRPCPRP", "shrunken log2 fold change": 0.514}
{"sequence": "RRIRMRPPRLPRPRPRPERNPRP", "shrunken log2 fold change": 0.0507}
{"sequence": "RRIRIRPPRLPRPRPRPEKSPRP", "shrunken log2 fold change": 0.028}
{"sequence": "RRIRQRPPRLPRPRPRPMAIPRP", "shrunken log2 fold change": -0.326}
{"sequence": "RRIRIRPPRLPRPRPRPRQKPRP", "shrunken log2 fold change": -0.028}
{"sequence": "RRIRRRPPRLPRPRPRPRMNPRP", "shrunken log2 fold change": 0.545}
{"sequence": "RRIRARPPRLPRPRPRPENCPRP", "shrunken log2 fold change": 0.177}
